T1: recombinant human interleukin 12 (p40/p35 heterodimer) (human, UniProt P29460 23-328; P29459 23-219)
T1 chain 1: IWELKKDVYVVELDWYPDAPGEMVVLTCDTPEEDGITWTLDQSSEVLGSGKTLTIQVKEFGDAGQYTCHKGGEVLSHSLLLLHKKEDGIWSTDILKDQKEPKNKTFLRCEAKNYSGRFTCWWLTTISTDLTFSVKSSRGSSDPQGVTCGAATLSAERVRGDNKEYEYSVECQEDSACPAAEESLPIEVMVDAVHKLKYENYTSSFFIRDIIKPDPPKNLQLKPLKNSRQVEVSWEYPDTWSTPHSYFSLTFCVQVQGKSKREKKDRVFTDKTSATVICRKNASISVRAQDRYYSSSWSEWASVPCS
T1 chain 2: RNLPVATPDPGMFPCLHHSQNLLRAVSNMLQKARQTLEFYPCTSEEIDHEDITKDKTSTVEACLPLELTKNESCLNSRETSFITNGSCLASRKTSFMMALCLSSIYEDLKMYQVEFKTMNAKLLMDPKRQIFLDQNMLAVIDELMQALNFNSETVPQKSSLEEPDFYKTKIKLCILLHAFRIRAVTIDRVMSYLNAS

B1: Y61 H97 N (peptide)
chain: HGNHDN
B2: Y61 H96 H (peptide)
chain: HHSHDN
B3: Y61 H101 S (peptide)
chain: HGSHSN
B4: Y61 H98 T (peptide)
chain: HGSTDN
B5: Y61 H95 E (peptide)
chain: EGSHDN
B6: Y61 H96 M (peptide)
chain: HMSHDN
B7: Y61 H97 T (peptide)
chain: HGTHDN
B8: Y61 H97 D (peptide)
chain: HGDHDN
B9: Y61 H98 A (peptide)
chain: HGSADN
B10: Y61 H96 L (peptide)
chain: HLSHDN
B11: Y61 H96 V (peptide)
chain: HVSHDN
B12: Y61 H98 L (peptide)
chain: HGSLDN
B13: Y61 H33 N (peptide)
chain: FTFSSYNMH
B14: Y61 H33 M (peptide)
chain: FTFSSYMMH
B15: Y61 H33 I (peptide)
chain: FTFSSYIMH
B16: Y61 H32 E (peptide)
chain: FTFSSEGMH
B17: Y61 H32 S (peptide)
chain: FTFSSSGMH
B18: Y61 H32 H (peptide)
chain: FTFSSHGMH
B19: Y61 H31 R (peptide)
chain: FTFSRYGMH
B20: Y61 H33 S (peptide)
chain: FTFSSYSMH
B21: Y61 H32 A (peptide)
chain: FTFSSAGMH
B22: Y61 H30 Y (peptide)
chain: FTFYSYGMH
B23: Y61 H33 C (peptide)
chain: FTFSSYCMH
B24: Y61 H33 A (peptide)
chain: FTFSSYAMH
B25: Y61 H33 D (peptide)
chain: FTFSSYDMH
B26: Y61 H30 R (peptide)
chain: FTFRSYGMH
B27: Y61 H30 K (peptide)
chain: FTFKSYGMH
B28: Y61 H31 H (peptide)
chain: FTFSHYGMH
B29: Y61 H31 T (peptide)
chain: FTFSTYGMH
B30: Y61 H30 V (peptide)
chain: FTFVSYGMH
B31: Y61 H30 I (peptide)
chain: FTFISYGMH
B32: Y61 H31 C (peptide)
chain: FTFSCYGMH
B33: Y61 H31 I (peptide)
chain: FTFSIYGMH
B34: Y61 H32 N (peptide)
chain: FTFSSNGMH
B35: Y61 H31 Y (peptide)
chain: FTFSYYGMH
B36: Y61 H31 Q (peptide)
chain: FTFSQYGMH
B37: Y61 H31 N (peptide)
chain: FTFSNYGMH
B38: Y61 H31 E (peptide)
chain: FTFSEYGMH
B39: Y61 H30 H (peptide)
chain: FTFHSYGMH
B40: Y61 H30 W (peptide)
chain: FTFWSYGMH
B41: Y61 H32 R (peptide)
chain: FTFSSRGMH
B42: Y61 H31 A (peptide)
chain: FTFSAYGMH
B43: Y61 H32 I (peptide)
chain: FTFSSIGMH
B44: Y61 H32 C (peptide)
chain: FTFSSCGMH
B45: Y61 H33 V (peptide)
chain: FTFSSYVMH
B46: Y61 H33 E (peptide)
chain: FTFSSYEMH
B47: Y61 H32 L (peptide)
chain: FTFSSLGMH
B48: Y61 H33 P (peptide)
chain: FTFSSYPMH
B49: Y61 H30 E (peptide)
chain: FTFESYGMH
B50: Y61 H30 N (peptide)
chain: FTFNSYGMH
B51: Y61 H33 Y (peptide)
chain: FTFSSYYMH
B52: Y61 H32 V (peptide)
chain: FTFSSVGMH
B53: Y61 H30 T (peptide)
chain: FTFTSYGMH
B54: Y61 H32 T (peptide)
chain: FTFSSTGMH
B55: Y61 H30 G (peptide)
chain: FTFGSYGMH
B56: Y61 H50 H (peptide)
chain: HIRYDGSNKYYADSVKG
B57: Y61 H53 A (peptide)
chain: FIRYAGSNKYYADSVKG
B58: Y61 H54 S (peptide)
chain: FIRYDSSNKYYADSVKG
B59: Y61 H52 Y (peptide)
chain: FIYYDGSNKYYADSVKG
B60: Y61 H53 V (peptide)
chain: FIRYVGSNKYYADSVKG
B61: Y61 H54 V (peptide)
chain: FIRYDVSNKYYADSVKG
B62: Y61 H53 E (peptide)
chain: FIRYEGSNKYYADSVKG
B63: Y61 H52 V (peptide)
chain: FIVYDGSNKYYADSVKG
B64: Y61 H52 K (peptide)
chain: FIKYDGSNKYYADSVKG
B65: Y61 H52 G (peptide)
chain: FIGYDGSNKYYADSVKG
B66: Y61 H52 H (peptide)
chain: FIHYDGSNKYYADSVKG
B67: Y61 H53 I (peptide)
chain: FIRYIGSNKYYADSVKG
B68: Y61 H54 D (peptide)
chain: FIRYDDSNKYYADSVKG
B69: Y61 H53 F (peptide)
chain: FIRYFGSNKYYADSVKG
B70: Y61 H53 R (peptide)
chain: FIRYRGSNKYYADSVKG

Target: T1, recombinant human interleukin 12 …
Assay: BIAcore

koff | Binder
0.00221 s⁻¹ | B1
0.000237 s⁻¹ | B2
0.000449 s⁻¹ | B3
0.000227 s⁻¹ | B4
0.00231 s⁻¹ | B5
0.00204 s⁻¹ | B6
0.000588 s⁻¹ | B7
0.00202 s⁻¹ | B8
0.000673 s⁻¹ | B9
0.00261 s⁻¹ | B10
0.000382 s⁻¹ | B11
0.000598 s⁻¹ | B12

Target: T1, recombinant human interleukin 12 …
Assay: BIAcore
Remark: another data set of the same source

koff | Binder
0.000308 s⁻¹ | B13
0.000215 s⁻¹ | B14
0.0025 s⁻¹ | B15
0.00229 s⁻¹ | B16
0.00158 s⁻¹ | B17
0.000461 s⁻¹ | B18
0.000664 s⁻¹ | B19
0.000399 s⁻¹ | B20
0.00166 s⁻¹ | B21
0.000319 s⁻¹ | B22
0.00286 s⁻¹ | B23
0.000273 s⁻¹ | B24
0.00152 s⁻¹ | B25
0.000245 s⁻¹ | B26
0.000225 s⁻¹ | B27
0.000309 s⁻¹ | B28
0.000716 s⁻¹ | B29
0.000399 s⁻¹ | B30
0.000207 s⁻¹ | B31
0.00012 s⁻¹ | B32
0.000334 s⁻¹ | B33
0.00297 s⁻¹ | B34

koff | Binder
0.000398 s⁻¹ | B35
0.000152 s⁻¹ | B36
0.000191 s⁻¹ | B37
0.000219 s⁻¹ | B38
0.000296 s⁻¹ | B39
0.000216 s⁻¹ | B40
0.00449 s⁻¹ | B41
0.000205 s⁻¹ | B42
0.00161 s⁻¹ | B43
0.00383 s⁻¹ | B44
0.00191 s⁻¹ | B45
0.00189 s⁻¹ | B46
0.00226 s⁻¹ | B47
0.0016 s⁻¹ | B48
0.000228 s⁻¹ | B49
0.000301 s⁻¹ | B50
0.0025 s⁻¹ | B51
0.00134 s⁻¹ | B52
0.00032 s⁻¹ | B53
0.00148 s⁻¹ | B54
0.000233 s⁻¹ | B55

Target: T1, recombinant human interleukin 12 …
Assay: BIAcore
Remark: another data set of the same source

koff | Binder
0.000309 s⁻¹ | B56
0.000404 s⁻¹ | B57
0.000373 s⁻¹ | B58
0.000298 s⁻¹ | B59
0.00044 s⁻¹ | B60
0.000435 s⁻¹ | B61
0.000399 s⁻¹ | B62
0.000317 s⁻¹ | B63
0.000262 s⁻¹ | B64
0.000321 s⁻¹ | B65
0.000407 s⁻¹ | B66
0.000944 s⁻¹ | B67
0.000455 s⁻¹ | B68
0.00169 s⁻¹ | B69
0.00167 s⁻¹ | B70
